Data reported in US20240132578A1.

Legend:
Experiment in all cases: cell-based or functional assay
[1] = molecular target: HIV-1 Env of isolate IAVI-C3 (Clade C) (HIV-1)
[2] = molecular target: HIV-1 Env of isolate APV-17 (Clade B) (HIV-1)
[3] = molecular target: HIV-1 92BR020 envelope protein (Env) on pseudotyped virus (HIV-1 strain 92BR020)
[4] = molecular target: HIV-1 JR-CSF envelope glycoprotein (Env), wild type, on pseudovirus (HIV-1 isolate JR-CSF (clade B)) (UniProt P20871)
[5] = molecular target: HIV-1 Env of isolate APV-13 (Clade B) (HIV-1)
[6] = molecular target: HIV-1 Env of isolate MGRM-F1-013 (subtype F) (HIV-1)
[7] = molecular target: HIV-1 Env of isolate 92UG046 (subtype D) (HIV-1)
[8] = molecular target: HIV-1 Env of isolate MGRM-A-011 (pseudovirus) (HIV-1)
[9] = molecular target: HIV-1 Env of isolate MGRM-Chronic-B-002 (subtype B), on pseudovirus (HIV-1)
[10] = molecular target: HIV-1 envelope glycoprotein (Env) of isolate 92WR009 (HIV-1)
[11] = molecular target: HIV-1 Env of isolate MG RM-D-028 (subtype D) (HIV-1)
[12] = molecular target: HIV-1 Env of isolate MGRM-Chronic-B-017 (subtype B), on pseudovirus (HIV-1)
[13] = molecular target: HIV-1 Env of isolate MGRM-A-014 (pseudovirus) (HIV-1)
[14] = molecular target: HIV-1 Env of isolate MG RM-C-022 (HIV-1)
[15] = molecular target: HIV-1 Env of isolate MGRM-Chronic-B-004 (subtype B), on pseudovirus (HIV-1)
[16] = molecular target: HIV-1 Env of isolate MG RM-D-005 (subtype D) (HIV-1)
[17] = molecular target: HIV-1 Env of isolate 93TH305 (subtype B), on pseudovirus (HIV-1)
[18] = molecular target: HIV-1 Env of isolate MGRM-A-010 (pseudovirus) (HIV-1)
[19] = molecular target: HIV-1 Env of isolate MG RM-D-026 (subtype D) (HIV-1)
[20] = molecular target: HIV-1 Env of pseudovirus 98CN009 (HIV-1)
[21] = molecular target: HIV-1 Env of isolate MGRM-Chronic-B-008 (subtype B), on pseudovirus (HIV-1)
[22] = molecular target: HIV-1 Env of isolate MG RM-D-014 (subtype D) (HIV-1)
[23] = molecular target: HIV-1 Env of isolate 94KE105 (pseudovirus) (HIV-1)
[24] = molecular target: HIV-1 Env of isolate MGRM-Chronic-B-023 (subtype B), on pseudovirus (HIV-1)
[25] = molecular target: HIV-1 Env of isolate MG RM-D-016 (subtype D) (HIV-1)
[26] = molecular target: HIV-1 Env of isolate MGRM-C-024 (clade C pseudovirus) (HIV-1)
[27] = molecular target: HIV-1 envelope glycoprotein (Env) of isolate 92WR024 (HIV-1)
[28] = molecular target: HIV-1 Env of isolate 92UG114 (subtype D) (HIV-1)
[29] = molecular target: HIV-1 envelope glycoprotein (Env) of isolate 92WR026 (HIV-1)
[30] = molecular target: HIV-1 Env of isolate MGRM-C-026 (clade C pseudovirus) (HIV-1)
[31] = molecular target: HIV-1 Env of isolate MG RM-D-024 (subtype D) (HIV-1)
[32] = molecular target: HIV-1 Env of isolate MGRM-F1-004 (subtype F) (HIV-1)
[33] = molecular target: HIV-1 Env of isolate MG RM-D-011 (subtype D) (HIV-1)
[34] = molecular target: HIV-1 Env of isolate MG RM-D-012 (subtype D) (HIV-1)
[35] = molecular target: HIV-1 Env of isolate MG RM-D-020 (subtype D) (HIV-1)
[36] = molecular target: HIV-1 Env of isolate MGRM-C-028 (clade C pseudovirus) (HIV-1)
[37] = molecular target: HIV-1 Env of isolate MGRM-F1-012 (subtype F) (HIV-1)
[38] = molecular target: HIV-1 Env of isolate MGRM-C-025 (clade C pseudovirus) (HIV-1)
[39] = molecular target: HIV-1 Env of isolate MGRM-C-027 (clade C pseudovirus) (HIV-1)
[40] = molecular target: HIV-1 JR-CSF Env N386A (HIV-1 isolate JR-CSF) (UniProt P20871)
[41] = molecular target: HIV-1 JR-CSF Env R350A (HIV-1 isolate JR-CSF) (UniProt P20871)
[42] = molecular target: HIV-1 JR-CSF Env N276A (HIV-1 (isolate JR-CSF)) (UniProt P20871)
[43] = molecular target: HIV-1 envelope glycoprotein (Env) of isolate 93UG077 (HIV-1)
[44] = molecular target: HIV-1 JR-CSF Env S387A (HIV-1 isolate JR-CSF) (UniProt P20871)

Work on 2G12 (antibody) yielded an IC90 (neutralization of pseudovirus) [1] greater than 50 µg/mL.

1443_C16 (PG16) (TCN-116) (antibody) was tested, and the IC90 (neutralization of pseudovirus) [1] was greater than 50 µg/mL, the IC90 (neutralization of pseudovirus) [2] was greater than 50 µg/mL and the IC50, Neutralizing Antibody Assay, Virus/Ab Incubation 1 hour [3] was greater than 50 µg/mL. It also gave an IC50, Neutralizing Antibody Assay, Virus/Ab Incubation 18 hour [3] greater than 50 µg/mL, an IC50 (ug/ml), pseudovirus neutralization, TZM-bl assay [4] of 0.001 µg/mL and an IC90 (neutralization of pseudovirus) [5] greater than 50 µg/mL.

1495_C14 (PGC14) (antibody) showed an IC50, Neutralizing Antibody Assay, Virus/Ab Incubation 1 hour [3] of 1.17 µg/mL and an IC50, Neutralizing Antibody Assay, Virus/Ab Incubation 18 hour [3] of 0.244 µg/mL.

1496_C09 (PG9) (TCN-109) (antibody) gave an IC50 (µg/mL), pseudovirus neutralization [6] of 1.25 µg/mL, an IC50 (µg/mL), pseudovirus neutralization [7] of 1.86 µg/mL and an IC50 (µg/mL), pseudovirus neutralization [8] of 0.033 µg/mL. The IC50, single-round pseudovirus neutralization [9] was 3.44 µg/mL, the IC50 [10] was 0.05 µg/mL and the IC50 (µg/mL), pseudovirus neutralization [11] was 20.2 µg/mL. The IC50, single-round pseudovirus neutralization [12] was 0.688 µg/mL, the IC50 (µg/mL), pseudovirus neutralization [13] was 1.25 µg/mL and the IC50 (µg/mL), pseudovirus neutralization [14] was 0.346 µg/mL. It also gave an IC50, single-round pseudovirus neutralization [15] of 0.533 µg/mL, an IC50 (µg/mL), pseudovirus neutralization [16] of 1.8 µg/mL and an IC50, single-round pseudovirus neutralization [17] of 8.12 µg/mL. The IC50 (µg/mL), pseudovirus neutralization [18] was 0.022 µg/mL, the IC50 (µg/mL), pseudovirus neutralization [19] was 23.7 µg/mL and the IC50, pseudovirus neutralization [20] was 0.371 µg/mL. It also gave an IC50, single-round pseudovirus neutralization [21] of 8.78 µg/mL, an IC50 (µg/mL), pseudovirus neutralization [22] of 0.023 µg/mL and an IC50 (µg/mL), pseudovirus neutralization [23] of 37.9 µg/mL. The IC50, single-round pseudovirus neutralization [24] was 0.027 µg/mL, the IC50 (µg/mL), pseudovirus neutralization [25] was 0.098 µg/mL and the IC50 (µg/mL), single-round pseudovirus neutralization [26] was 0.227 µg/mL. For the same substance, the IC50 [27] was 0.258 µg/mL, the IC50 (µg/mL), pseudovirus neutralization [28] was 40.6 µg/mL and the IC50 (ug/ml), pseudovirus neutralization, TZM-bl assay [4] was 0.006 µg/mL. For the same substance, the IC50 [29] was 0.164 µg/mL, the IC50 (µg/mL), single-round pseudovirus neutralization [30] was 0.06 µg/mL and the IC50 (µg/mL), pseudovirus neutralization [31] was 0.038 µg/mL. For the same substance, the IC50 (µg/mL), pseudovirus neutralization [32] was 0.175 µg/mL, the IC50 (µg/mL), pseudovirus neutralization [33] was 0.071 µg/mL and the IC50 (µg/mL), pseudovirus neutralization [34] was 16.2 µg/mL. The IC50 (µg/mL), pseudovirus neutralization [35] was 1.67 µg/mL, the IC50 (µg/mL), single-round pseudovirus neutralization [36] was 0.067 µg/mL and the IC50 (µg/mL), pseudovirus neutralization [37] was 0.023 µg/mL. It also gave an IC50 (µg/mL), single-round pseudovirus neutralization [38] of 0.148 µg/mL and an IC50 (µg/mL), single-round pseudovirus neutralization [39] of 5.36 µg/mL.

With 5123_A06 (PGT-125) (antibody) the Fold IC50 increase relative to wild-type [40] was 0.8 fold.

5136_H01 (PGT-131) (antibody) was tested, and the Fold IC50 increase relative to wild-type [41] was 1.3 fold and the Fold IC50 increase relative to wild-type [42] was 0.8 fold.

5141_B17 (PGT-126) (antibody) showed a Neutralization IC80 [43] of 0.102 µg/mL, a Neutralization IC90 [43] of 0.238 µg/mL and a Neutralization IC95 [43] of 0.577 µg/mL. It also gave a neutralization IC50 [43] of 0.0256 µg/mL.

Work on 5147_N06 (PGT-130) (antibody) yielded a Fold IC50 increase relative to wild-type [41] of 0.5 fold, a Fold IC50 increase relative to wild-type [44] of 0.7 fold and a Fold IC50 increase relative to wild-type [40] of 0.1 fold.

5343_B08 (PGT-135) (antibody) was tested, and the Fold IC50 increase relative to wild-type [42] was 2.5 fold and the Fold IC50 increase relative to wild-type [44] was 0.6 fold.

PGV04 (antibody) was tested, and the IC50 (µg/mL), pseudovirus neutralization [6] was 0.084 µg/mL, the IC50 (µg/mL), pseudovirus neutralization [7] was 22.4 µg/mL and the IC50 (µg/mL), pseudovirus neutralization [8] was 0.09 µg/mL. It also gave an IC50, single-round pseudovirus neutralization [9] of 0.142 µg/mL, an IC50 [10] of 0.108 µg/mL and an IC50 (µg/mL), pseudovirus neutralization [11] of 1.01 µg/mL. For the same substance, the IC50, single-round pseudovirus neutralization [12] was 0.129 µg/mL, the IC50 (µg/mL), pseudovirus neutralization [13] was 0.172 µg/mL and the IC50 (µg/mL), pseudovirus neutralization [14] was 18.3 µg/mL. For the same substance, the IC50, single-round pseudovirus neutralization [15] was 0.047 µg/mL, the IC50 (µg/mL), pseudovirus neutralization [16] was greater than 50 µg/mL and the IC50, single-round pseudovirus neutralization [17] was 0.255 µg/mL. It also gave an IC50 (µg/mL), pseudovirus neutralization [18] of 0.205 µg/mL, an IC50 (µg/mL), pseudovirus neutralization [19] of 1.76 µg/mL and an IC50, pseudovirus neutralization [20] of 0.0125 µg/mL. It also gave an IC50, single-round pseudovirus neutralization [21] of 0.166 µg/mL, an IC50 (µg/mL), pseudovirus neutralization [22] of 0.194 µg/mL and an IC50 (µg/mL), pseudovirus neutralization [23] of 2.98 µg/mL. It also gave an IC50, single-round pseudovirus neutralization [24] of 0.139 µg/mL, an IC50 (µg/mL), pseudovirus neutralization [25] of 0.201 µg/mL and an IC50 (µg/mL), single-round pseudovirus neutralization [26] greater than 50 µg/mL. The IC50 [27] was 0.31 µg/mL, the IC50 (µg/mL), pseudovirus neutralization [28] was 0.461 µg/mL and the IC50 [43] was 0.083 µg/mL. For the same substance, the IC50 [29] was 0.14 µg/mL, the IC50 (µg/mL), single-round pseudovirus neutralization [30] was 0.303 µg/mL and the IC50 (µg/mL), pseudovirus neutralization [31] was greater than 50 µg/mL. For the same substance, the IC50 (µg/mL), pseudovirus neutralization [32] was 0.58 µg/mL, the IC50 (µg/mL), pseudovirus neutralization [33] was 0.025 µg/mL and the IC50 (µg/mL), pseudovirus neutralization [34] was 0.125 µg/mL. It also gave an IC50 (µg/mL), pseudovirus neutralization [35] of 0.097 µg/mL, an IC50 (µg/mL), single-round pseudovirus neutralization [36] of 0.149 µg/mL and an IC50 (µg/mL), pseudovirus neutralization [37] of 0.25 µg/mL. For the same substance, the IC50 (µg/mL), single-round pseudovirus neutralization [38] was greater than 50 µg/mL and the IC50 (µg/mL), single-round pseudovirus neutralization [39] was 2.76 µg/mL.

b12 (antibody) showed an IC90 (neutralization of pseudovirus) [2] greater than 50 µg/mL and an IC90 (neutralization of pseudovirus) [5] greater than 50 µg/mL.
